Measurements taken from article PMC5445526.
Blank lines part the entries; values can stand above or below the substance they belong to.

Legend:
(GB1)2-AXB [1] = assay: MALDI-TOF mass spectrometry
(GB1)2-AXB [2] = assay: SEC + other: SDS-PAGE with gel densitometry
(GB1)2-AXB [3] = assay: SDS-PAGE with gel densitometry
(GB1)2-AXB [4] = assay: SEC
AXB-(GB1)2 [5] = assay: MALDI-TOF mass spectrometry
AXB-(GB1)2 [6] = assay: SEC + other: SDS-PAGE with gel densitometry
AXB-(GB1)2 [7] = assay: SDS-PAGE with gel densitometry
AXB-(GB1)2 [8] = assay: SEC
BXA-(GB1)2 [9] = assay: MALDI-TOF mass spectrometry
BXA-(GB1)2 [10] = assay: SEC + other: SDS-PAGE with gel densitometry
BXA-(GB1)2 [11] = assay: SDS-PAGE with gel densitometry
BXA-(GB1)2 [12] = assay: SEC
(GB1)2-BXA [13] = assay: MALDI-TOF mass spectrometry
(GB1)2-BXA [14] = assay: SEC + other: SDS-PAGE with gel densitometry
(GB1)2-BXA [15] = assay: SDS-PAGE with gel densitometry
(GB1)2-BXA [16] = assay: SEC

- stoichiometry N ((GB1)2-AXB [1]): 2
- overall catenation efficiency (%) ((GB1)2-AXB [2]): 73%
- dimer content by SDS-PAGE densitometry (%) ((GB1)2-AXB [3]): 93%
- stoichiometry N ((GB1)2-AXB [4]): 2
Substance: (GB1)2-AXB
- dimer content by SEC (%) (SEC): 78%

- stoichiometry N (AXB-(GB1)2 [5]): 2
- overall catenation efficiency (%) (AXB-(GB1)2 [6]): 66%
- dimer content by SDS-PAGE densitometry (%) (AXB-(GB1)2 [7]): 80%
- stoichiometry N (AXB-(GB1)2 [8]): 2
Substance: AXB-(GB1)2
- dimer content by SEC (%) (SEC): 82%

- stoichiometry N (BXA-(GB1)2 [9]): 2
- overall catenation efficiency (%) (BXA-(GB1)2 [10]): 83%
- dimer content by SDS-PAGE densitometry (%) (BXA-(GB1)2 [11]): 86%
- stoichiometry N (BXA-(GB1)2 [12]): 2
Substance: BXA-(GB1)2
- dimer content by SEC (%) (SEC): 97%

- stoichiometry N ((GB1)2-BXA [13]): 2
- overall catenation efficiency (%) ((GB1)2-BXA [14]): 76%
- dimer content by SDS-PAGE densitometry (%) ((GB1)2-BXA [15]): 83%
- stoichiometry N ((GB1)2-BXA [16]): 2
Substance: (GB1)2-BXA
- dimer content by SEC (%) (SEC): 92%
